From PMC8431453

Target: Met receptor tyrosine kinase (human (endogenous in EHMES-1)) (UniProt P08581)
Sequence of UniProt P08581 (P08581 25-1390): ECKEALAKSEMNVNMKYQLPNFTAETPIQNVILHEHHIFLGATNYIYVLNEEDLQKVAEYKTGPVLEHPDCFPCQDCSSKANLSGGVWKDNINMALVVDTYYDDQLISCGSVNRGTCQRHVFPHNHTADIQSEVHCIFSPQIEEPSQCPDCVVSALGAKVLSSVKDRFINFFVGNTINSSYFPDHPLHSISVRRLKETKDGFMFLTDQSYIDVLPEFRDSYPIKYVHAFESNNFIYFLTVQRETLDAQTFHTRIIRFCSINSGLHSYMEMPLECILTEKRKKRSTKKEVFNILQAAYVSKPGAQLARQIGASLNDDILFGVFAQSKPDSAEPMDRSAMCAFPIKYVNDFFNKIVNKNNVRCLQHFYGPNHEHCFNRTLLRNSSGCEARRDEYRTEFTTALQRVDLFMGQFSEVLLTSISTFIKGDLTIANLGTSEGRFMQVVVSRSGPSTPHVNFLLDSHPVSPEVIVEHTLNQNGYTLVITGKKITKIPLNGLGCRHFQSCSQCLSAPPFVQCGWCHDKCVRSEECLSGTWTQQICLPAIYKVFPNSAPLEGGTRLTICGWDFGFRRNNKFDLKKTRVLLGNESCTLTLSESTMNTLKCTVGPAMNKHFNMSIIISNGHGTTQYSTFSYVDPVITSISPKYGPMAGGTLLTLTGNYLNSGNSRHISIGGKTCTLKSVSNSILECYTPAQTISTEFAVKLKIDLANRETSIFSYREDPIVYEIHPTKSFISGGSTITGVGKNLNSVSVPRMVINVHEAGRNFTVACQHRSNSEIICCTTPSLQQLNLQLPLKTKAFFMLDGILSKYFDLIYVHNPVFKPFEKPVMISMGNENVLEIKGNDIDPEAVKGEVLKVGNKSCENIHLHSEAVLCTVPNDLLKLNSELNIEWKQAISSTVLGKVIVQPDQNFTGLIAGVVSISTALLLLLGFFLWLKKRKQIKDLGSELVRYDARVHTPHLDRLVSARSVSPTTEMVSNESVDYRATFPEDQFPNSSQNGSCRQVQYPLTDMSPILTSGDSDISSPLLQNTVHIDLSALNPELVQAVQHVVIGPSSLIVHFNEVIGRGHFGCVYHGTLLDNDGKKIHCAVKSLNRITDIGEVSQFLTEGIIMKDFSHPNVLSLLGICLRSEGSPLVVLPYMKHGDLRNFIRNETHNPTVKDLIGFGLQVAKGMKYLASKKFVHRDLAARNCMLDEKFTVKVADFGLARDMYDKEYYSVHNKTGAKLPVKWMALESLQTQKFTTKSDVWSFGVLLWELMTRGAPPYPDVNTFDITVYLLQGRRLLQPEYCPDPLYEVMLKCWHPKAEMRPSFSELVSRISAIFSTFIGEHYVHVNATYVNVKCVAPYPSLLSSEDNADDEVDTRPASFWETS

| Substance | Met Y1234/1235 phosphorylation in EHMES-1 cells, cell-based ELISA, at 30 nM, compared with wild-type NK1 | Met Y1234/1235 phosphorylation in EHMES-1 cells, cell-based ELISA, compared with 30 nM wild-type NK1 (fold of 30 nM wild-type NK1) |
| --- | --- | --- |
| V140A mutant NK1 (ligand) | 23.8% | – |
| N127A mutant NK1 (ligand) | 8.3% | – |
| K144A mutant NK1 (ligand) | 52.2% | – |
| wild-type hepatocyte growth factor (two-chain HGF) (from UniProt P14210-3 32-489) (ligand) | – | 2.5 |
